Consider two substances from patent publication US20030236197A1.

For the test, the target named is Aβ1-40 peptide (monomeric start material of the nucleation assay). The test is described as follows: cell-based or functional assay.

With “PPI-969: TFA • N-ethyl-(Gaffvl)-NH2 (peptide)”, the Nucleation assay Δ lag at 1.25 µM compound (ratio of lag time to control) was 3, the Nucleation assay Δ lag at 2.5 µM compound (ratio of lag time to control) was greater than 5 and the Nucleation assay Δ lag at 5 µM compound (ratio of lag time to control) is greater than 5.

As for “PPI-1013: TFA • H-(Glvffl)-NH2 (peptide)”, the Nucleation assay Δ lag at 0.6 µM compound (row marked #: measured at 2.5, 1.25 and 0.6 µM) (ratio of lag time to control) turned out to be 2; the Nucleation assay Δ lag at 1.25 µM compound (row marked #: measured at 2.5, 1.25 and 0.6 µM) (ratio of lag time to control) is greater than 3; the Nucleation assay Δ lag at 2.5 µM compound (row marked #: measured at 2.5, 1.25 and 0.6 µM) (ratio of lag time to control) worked out at 2.
